Measurements from patent US20160008427A1 (Genentech, published 2016).
Residue numbers refer to the chain shown, from its start. Names may count otherwise.

B1: IRL11 (receptor)
CRIg variant: RPILEVPYSVTGPWKGDVNLPCTYDPLQGYTQVLVKWLVQRGSDPVTIFLRDSSGDHIQIAKYRGRLHVSHKVPGDVSLQLSTLEMDDRSHYTCEVTWQTPDGNQVVRDKITELRVQKHSSKLLKTKTEAPTTMTYPLKATSTVKQSWDWTTDMDGYLGETSAGPGK
notes: also called Q60I-Q64R/E8Y
B2: IRL21 (receptor)
CRIg variant: B1 CRIg variant with Y8E, G42D
notes: also called Q60I-Q64R/G42D
B3: IRL23 (receptor)
CRIg variant: B1 CRIg variant with Y8E, P45F
notes: also called Q60I-Q64R/P45F
B4: L24 (receptor)
CRIg variant: B1 CRIg variant with Y8E, G42D, D44H, P45F, I60Q, R64Q
notes: also called G42D/D44H/P45F (printed G42D/D44/H/P45F)
B5: RL59 (receptor)
CRIg variant: B1 CRIg variant with Y8E, I60Q, Q105R, K110N
notes: also called Q64R/Q105R/K110N
B6: IRL24 (receptor)
CRIg variant: RPILEVPESVTGPWKGDVNLPCTYDPLQGYTQVLVKWLVQRDSHFVTIFLRDSSGDHIQIAKYRGRLHVSHKVPGDVSLQLSTLEMDDRSHYTCEVTWQTPDGNQVVRDKITELRVQKHSSKLLKTKTEAPTTMTYPLKATSTVKQSWDWTTDMDGYLGETSAGPGKSLP
notes: the mutation string is cut off at the cell border on the sheet; also called Q60I/Q64R/G42D/D44H/P45F
B7: IRL41 (receptor)
CRIg variant: B6 CRIg variant with D42G, H44D, F45P, M86Y
notes: also called RIL41; RIL 41
B8: IRL51 (receptor)
CRIg variant: B6 CRIg variant with D42G, H44D, F45P, Q105R
notes: also called Q60I-Q64R/Q105R
B9: IRL52 (receptor)
CRIg variant: B6 CRIg variant with D42G, H44D, F45P, Q105K
notes: also called Q60I-Q64R/Q105K
B10: IRL55 or IRL56 (last digit not sure) (receptor)
CRIg variant: B6 CRIg variant with D42G, H44D, F45P, K110N
notes: row between IRL52 and IRL59; also called Q60I-Q64R/K110N
B11: YL24 (receptor)
CRIg variant: B6 CRIg variant with I60Q, R64Q, M86Y
notes: also called M86Y/G42D/D44H/P45F
B12: YL59 (receptor)
CRIg variant: B6 CRIg variant with D42G, H44D, F45P, I60Q, R64Q, M86Y, Q105R, K110N
notes: also called M86Y/Q105R/K110N

Each binder was assayed against T1, C3b (human, UniProt P01024 23-667; P01024 749-1663) (assay: competitive ELISA, column 'Mu Ic50 (nM)'; format of paragraph 183: variant in solution competes with coated huCRIg(L)-LFH for C3b).
T1 construct: also called soluble C3b; human C3b
T1 sequence (P01024 23-667 limits assumed, chain 1 of 2): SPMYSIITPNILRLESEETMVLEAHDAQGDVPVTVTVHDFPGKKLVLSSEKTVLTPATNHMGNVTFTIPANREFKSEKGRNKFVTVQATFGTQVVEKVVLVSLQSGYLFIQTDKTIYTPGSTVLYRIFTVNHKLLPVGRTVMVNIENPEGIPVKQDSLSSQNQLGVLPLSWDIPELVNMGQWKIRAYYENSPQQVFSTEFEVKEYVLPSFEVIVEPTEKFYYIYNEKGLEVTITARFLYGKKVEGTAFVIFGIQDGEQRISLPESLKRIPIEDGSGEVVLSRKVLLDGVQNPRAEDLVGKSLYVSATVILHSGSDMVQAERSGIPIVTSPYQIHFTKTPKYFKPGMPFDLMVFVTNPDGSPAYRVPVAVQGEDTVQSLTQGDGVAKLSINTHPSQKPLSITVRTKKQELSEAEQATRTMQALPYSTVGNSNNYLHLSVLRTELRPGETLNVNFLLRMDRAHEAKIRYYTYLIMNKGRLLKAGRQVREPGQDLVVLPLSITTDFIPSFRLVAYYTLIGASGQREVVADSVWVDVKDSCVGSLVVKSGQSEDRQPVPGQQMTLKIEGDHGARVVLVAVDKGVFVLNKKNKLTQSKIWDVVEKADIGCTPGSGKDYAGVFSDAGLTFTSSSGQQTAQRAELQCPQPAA
T1 sequence (P01024 749-1663 limits assumed, chain 2 of 2): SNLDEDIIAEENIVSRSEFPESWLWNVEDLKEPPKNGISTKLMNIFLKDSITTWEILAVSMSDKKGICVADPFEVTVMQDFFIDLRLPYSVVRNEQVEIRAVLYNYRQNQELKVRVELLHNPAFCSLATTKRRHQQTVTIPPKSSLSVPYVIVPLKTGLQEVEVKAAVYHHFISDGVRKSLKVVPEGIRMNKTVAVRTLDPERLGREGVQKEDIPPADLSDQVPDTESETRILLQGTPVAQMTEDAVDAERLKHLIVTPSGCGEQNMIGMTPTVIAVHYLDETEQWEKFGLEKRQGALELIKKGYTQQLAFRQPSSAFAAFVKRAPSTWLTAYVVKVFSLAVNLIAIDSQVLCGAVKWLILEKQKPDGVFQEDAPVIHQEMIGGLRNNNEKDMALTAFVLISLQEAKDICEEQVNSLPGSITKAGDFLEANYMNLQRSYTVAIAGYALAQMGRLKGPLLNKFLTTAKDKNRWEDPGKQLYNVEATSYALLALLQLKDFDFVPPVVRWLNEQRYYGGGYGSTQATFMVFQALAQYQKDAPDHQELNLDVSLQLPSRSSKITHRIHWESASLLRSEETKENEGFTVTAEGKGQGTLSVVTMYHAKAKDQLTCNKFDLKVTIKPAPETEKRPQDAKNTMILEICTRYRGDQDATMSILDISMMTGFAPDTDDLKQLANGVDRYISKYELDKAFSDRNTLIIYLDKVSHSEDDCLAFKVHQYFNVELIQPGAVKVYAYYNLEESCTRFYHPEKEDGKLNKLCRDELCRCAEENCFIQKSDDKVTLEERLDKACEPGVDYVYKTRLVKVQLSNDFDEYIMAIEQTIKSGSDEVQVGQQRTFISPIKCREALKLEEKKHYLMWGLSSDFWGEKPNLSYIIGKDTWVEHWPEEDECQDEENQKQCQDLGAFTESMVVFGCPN
Protocol: (§1) huCRIg(L)-LFH was diluted to 2μg/mL in PBS, pH 7.4, and coated onto Maxisorp 384-well flat bottom plates (Nunc, Neptune, NJ) by incubating overnight (16-18 hr) at 4° C. (25 ul/well). The plates were washed 3 times in Wash Buffer (PBS, pH7.4, 0.05% Tween 20), and 50 ul/well of Block Buffer (PBS, pH 7.4, 0.5% BSA) was added to each well. The plates were allowed to block for 1-3hr; this and all subsequent incubations were performed on an orbital shaker at room temperature. During the blocking step, C3b (purified at Genentech) was diluted to 20 nM in Assay Buffer (PBS pH7.4, 0.5% BSA, 0.05% Tween-20), and the mutCRlg-huFc molecules were serially diluted in Assay Buffer, over a concentration range of 20,000—0.34 nM. The C3b and mutCRlg-huFc molecules were then mixed 1:1 and allowed to pre-incubate for 0.5-1 hr. The blocked plates were washed three times (as described above), and the C3b:mutCRlg-huFc complexes were added to the reaction plates (25 ul/well). After a 1-2 hr incubation, The ELISA plates were washed three times, (as described above) and plate-bound C3b was detected by the addition of an anti-human C3b antibody (clone 5F202, US Biological, Swampscott, Mass.; 600 ng/mL, 25 ul/well). The plates were incubated for 1-2 hr and washed as described above. HRP-conjugated anti-murine Fc IgG (Jackson ImmunoResearch, West Grove, Pa.) diluted 1:2,000 was then added (25 ul/well), and the plates were incubated for 1-2 hr. After a final wash, 25 ul/well of TMB substrate (Kirkegaard & Perry Laboratories, Gaithersburg, Md.) was added to the ELISA plates. Color development was stopped after approximately 8min by adding 25 ul/well 1.0M phosphoric acid. Absorbance at 450 nm and 650 nm was determined using a SpectraMax 250 microtiter plate reader (Molecular Devices, Sunnyvale, Calif.).

**Q.** B1 was tested. Which IC50 did it give?
**A.** 34 nM

**Q.** B2 was tested. Which IC50 did it give?
**A.** 29 nM

**Q.** B3 was tested. Which IC50 did it give?
**A.** 31 nM

**Q.** With B4 as the binder, how does the IC50 read?
**A.** 238 nM

**Q.** B5 was tested. Which IC50 did it give?
**A.** 65 nM

**Q.** B6 was tested. Which IC50 did it give?
**A.** 4 nM

**Q.** For B7, which IC50 is on record?
**A.** 10 nM

**Q.** B8 was tested. Which IC50 did it give?
**A.** 24 nM

**Q.** How did the IC50 turn out when B9 was run?
**A.** 22 nM

**Q.** Which IC50 does the source give for B10 here?
**A.** 33 nM

**Q.** With B11 as the binder, how does the IC50 read?
**A.** 31 nM

**Q.** B12 was tested. Which IC50 did it give?
**A.** 18 nM

Each binder was assayed against T1, C3b (assay: competitive ELISA (competitive displacement of C3b); format of paragraph 183: variant in solution competes with coated huCRIg(L)-LFH for C3b).
Protocol: as §1, with “HRP-conjugated anti-murine Fc IgG (Jackson ImmunoResearch, West Grove, Pa.) diluted 1:2,000 was then added (25 ul/well), and the plates were incubated for 1-2 hr. After a final wash, 25 ul/well of TMB substrate (Kirkegaard & Perry Laboratories, Gaithersburg, Md.) was added to the ELISA plates. Color development was stopped after approximately 8min by adding 25 ul/well 1.0M phosphoric acid.” left out

**Q.** How did the “IC50 (read off the curve)” value turn out when B7 was run?
**A.** ~10 nM
